The source of these data is US12091776B2, “Protease activity profiling via programmable phage display of comprehensive proteome-scale peptide libraries” (THE JOHNS HOPKINS UNIVERSITY, priority 2019, dated 2024).

Where “and” joins values, the source holds several entries; their conditions need not be identical. Equal entries are not always repeated.

For assay [1], the target named is T1, Caspase-1 (Homo sapiens, UniProt P29466).
T1 construct: purchased BioVision
T1 sequence (P29466 120-297 limits assumed): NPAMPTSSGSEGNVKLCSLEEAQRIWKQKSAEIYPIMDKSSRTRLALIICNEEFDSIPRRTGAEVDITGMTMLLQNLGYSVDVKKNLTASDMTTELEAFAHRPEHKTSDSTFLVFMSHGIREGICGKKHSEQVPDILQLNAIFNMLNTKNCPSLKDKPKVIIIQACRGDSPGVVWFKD
T1 sequence (P29466 317-404 limits assumed): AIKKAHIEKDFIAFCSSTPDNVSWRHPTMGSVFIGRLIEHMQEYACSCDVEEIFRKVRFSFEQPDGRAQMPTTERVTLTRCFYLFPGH
In words: SEPARATE assay: human peptidome library digest with Caspase-1. The class given is biochemical. Conditions: human library, Caspase-1. As for the experimental part:
(§1) Streptavidin-coupled magnetic beads (Dynabeads M-280 Streptavidin, ThermoFisher Scientific) were washed (TBS, pH 7.4, 0.01% NP40) and resuspended in binding buffer (TBS, pH 7.4, 0.001% NP40) containing 2E9 plaque forming units per 10 μl of bead slurry. End-over-end mixing at room temperature was performed for one hour. Phage-coated beads were washed three times with wash buffer and transferred into two protein LoBind Eppendorf tubes blocked with TBS, pH 7.4 containing 1% BSA.
Digestion occurred overnight at room temperature with end-over-end rotation. […] To remove any residual biotinylated phage that may have been nonspecifically released, the 150 μl supernatant of the quenched digest reaction is then incubated with a fresh 10 μl of slurry volume M280 streptavidin beads (pre-washed three times with wash buffer) in a LoBind Eppendorf tube blocked with TBS, pH 7.4 containing 1% BSA at room temperature for one hour with end-over-end rotation.
10 μl slurry volume of protein G magnetic dynabeads were washed in buffer (TBS, pH 7.4, 0.01% NP40) and then resuspended in 50 μl TBS, pH 7.4, 0.01% NP40 containing 4 μg of M2 FLAG antibody for thirty minutes at room temperature with end-over-end rotation. The 150 μl quenched digest reaction is added to the 10 μl FLAG-coated Protein G beads and incubated for 60 minutes at room temperature with end-over-end rotation to capture phage particles released at the protease digest step. Beads are rinsed once with 100 μl wash buffer and stored at −80° C. until PCR amplification.
Library PCR preparation, high-throughput DNA sequencing, and peptide read count data generation was performed as described previously.^44 Briefly, library peptide inserts are amplified by resuspending 10 μl of FLAG-coated Protein G beads in PCR1 master mix containing the T7-Pep2_PCR1_F forward primer ([…]) (SEQ ID NO:3) and a T7-SEPARATE vector specific reverse primer ([…]) (SEQ ID NO:4), which includes an adapter sequence for sample-specific barcoding and Illumina P7 adapter incorporation during a subsequent PCR2 reaction. The PCR2 amplicons are pooled and sequenced using an Illumina NextSeq instrument in standard output mode to obtain single-end 50 nucleotide reads. Dual indexed sample demultiplexing and clonal read count determination were performed using exact sequence matching. […] To calculate the normalization factor, 100 peptides were randomly selected from the mock digest conditions with a read count ranging between 10 and 40. The median read count value for these 100 peptides is calculated for each sample. The random peptide selection and median calculation is performed 20 times and the average of the 20 median values is calculated for each sample. Finally, the normalization factor is calculated by dividing the average median value for each sample by that for one of the mock digest conditions. Read counts are then converted to normalized read counts by dividing each sample's read count values by the normalization factor. Fold enrichments are calculated for each peptide by dividing their normalized read counts in the digest condition by the normalized read counts in the mock digest condition. The fold enrichments can be visualized in an MA plot by transforming the normalized read count data into a log ratio (M, on the y-axis) and a mean average (A, on the x-axis) between the digest and mock digest conditions.

Another assay has as its target T2, endogenous Caspase-1 (Homo sapiens, UniProt P29466).
T2 construct: endogenous in cells; host or cells: PMA-differentiated THP-1 cells
T2 sequence (P29466 120-404): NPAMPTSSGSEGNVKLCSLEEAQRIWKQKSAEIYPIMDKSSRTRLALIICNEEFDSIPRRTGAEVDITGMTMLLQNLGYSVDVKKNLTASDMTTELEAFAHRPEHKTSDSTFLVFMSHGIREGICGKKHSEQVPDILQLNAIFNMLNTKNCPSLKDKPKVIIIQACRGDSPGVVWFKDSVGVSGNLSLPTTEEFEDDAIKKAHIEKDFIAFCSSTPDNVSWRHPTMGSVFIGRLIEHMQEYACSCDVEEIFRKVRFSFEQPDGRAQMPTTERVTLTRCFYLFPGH
In words: In vitro stimulation of the inflammasome in THP-1 cells (Western blot). Conditions: PMA differentiated THP-1 cells, LPS and Nigericin. The assay is classed as cell-based. As for the experimental part:
THP-1 cells were cultured in RPMI-1640 media with Glutamax (Gibco, ThermoFisher, Cat #61870127), supplemented with 10% FBS (Hyclone SH30071, GE Life Sciences), and 1× Antibiotic-Antimycotic (Gibco, ThermoFisher, Cat #15240062), referred to as complete RPMI. To differentiate THP-1 cells into macrophages, 1×10^6 THP-1 cells were added per well of a 6-well plate in complete RPMI medium containing 50 ng/ml Phorbol 12-myristate 13-acetate (PMA, diluted in RPMI medium from a 1 mg/ml PMA stock in DMSO, Millipore Sigma, Cat. No. P1585). After 48 hours when the cells become adherent, the medium with PMA was removed, cells washed in 1×PBS once, and fresh complete RPMI was added. Cells were allowed to rest for an additional 24 hours before inflammasome activation with LPS and Nigericin.
A 6-well plate of PMA differentiated THP-1 cells were treated with 0, 1 or 0.1 μg/ml LPS (Millipore Sigma, Cat. No. LPS25) for 3.5 hours. After 3.5 hours, cells were treated with 2.5 μM Nigericin for an additional 30 minutes to activate the inflammasome. Cells were washed in 1×PBS and lysed in 1× mammalian cell extraction buffer (BioVision, Cat. No. K269) containing 2 μM Dithiothreitol (DTT). Nuclei were spun down by centrifugation (10,000 rpm, 5 minutes, 4° C.) and the cleared supernatant was used to perform Western blots. […]

A further assay concerns the target T3, Thrombin (Homo sapiens, UniProt P00734).
T3 construct: Thrombin (a serine protease); purchased SignalChem
In words: SEPARATE assay: human peptidome library digest with Thrombin. The settings on record: top 20 enriched peptides, human library (90-aa tiles); digest vs mock digest. The class given is biochemical.

Assay [2] has as its target T1, Caspase-1. The assay is described as follows: SEPARATE assay: 56-amino acid mouse peptidome library digested with Caspase-1. The class given is biochemical. Conditions: mouse library peptides of IL-1β and Gsdmd, FIG. 8. How it is done: as §1
Digestion occurred overnight at room temperature with end-over-end rotation. […]
Library PCR preparation, high-throughput DNA sequencing, and peptide read count data generation was performed as described previously.^44 Briefly, library peptide inserts are amplified by resuspending 10 μl of FLAG-coated Protein G beads in PCR1 master mix containing the T7-Pep2_PCR1_F forward primer ([…]) (SEQ ID NO:3) and a T7-SEPARATE vector specific reverse primer ([…]) (SEQ ID NO:4), which includes an adapter sequence for sample-specific barcoding and Illumina P7 adapter incorporation during a subsequent PCR2 reaction. The PCR2 amplicons are pooled and sequenced using an Illumina NextSeq instrument in standard output mode to obtain single-end 50 nucleotide reads. Dual indexed sample demultiplexing and clonal read count determination were performed using exact sequence matching. […]

Experimental for Thrombin: The PCR2 amplicons are pooled and sequenced using an Illumina NextSeq instrument in standard output mode to obtain single-end 50 nucleotide reads. Dual indexed sample demultiplexing and clonal read count determination were performed using exact sequence matching. […] To calculate the normalization factor, 100 peptides were randomly selected from the mock digest conditions with a read count ranging between 10 and 40. The median read count value for these 100 peptides is calculated for each sample. The random peptide selection and median calculation is performed 20 times and the average of the 20 median values is calculated for each sample. Finally, the normalization factor is calculated by dividing the average median value for each sample by that for one of the mock digest conditions. […]

B1: Gasdermin-D: well characterized human Caspase-1 substrate (protein, UniProt P57764 1-484, looked up)
Gasdermin-D: MGSAFERVVRRVVQELDHGGEFIPVTSLQSSTGFQPYCLVVRKPSSSWFWKPRYKCVNLSIKDILEPDAAEPDVQRGRSFHFYDAMDGQIQGSVELAAPGQAKIAGGAAVSDSSSTSMNVYSLSVDPNTWQTLLHERHLRQPEHKVLQQLRSRGDNVYVVTEVLQTQKEVEVTRTHKREGSGRFSLPGATCLQGEGQGHLSQKKTVTIPSGSTLAFRVAQLVIDSDLDVLLFPDKKQRTFQPPATGHKRSTSEGAWPQLPSGLSMMRCLHNFLTDGVPAEGAFTEDFQGLRAEVETISKELELLDRELCQLLLEGLEGVLRDQLALRALEEALEQGQSLGPVEPLDGPAGAVLECLVLSSGMLVPELAIPVVYLLGALTMLSETQHKLLAEALESQTLLGPLELVGSLLEQSAPWQERSTMSLPPGLLGNSWGEGAPAWVLLDECGLELGEDTPHVCWEPQAQGRMCALYASLALLSGLSQEPH
Regarding B1, the “scoring in the SEPARATE assay” value with Caspase-1 [1] was “did not score”. For the same molecule, in the assay with endogenous Caspase-1, the “cleavage by endogenous Caspase-1 upon inflammasome activation (Western blot)” value is “cleaved”.

B2: APLPRSNRSRCPGTRQPGAASLHAASAAVPVRPRRGTAPAGKTADAVPAAAPEQAPRPAPQSRKPRNLEGDLDERRLLCHLQLAQDREAR (protein, listed as Homo sapiens)
chain: APLPRSNRSRCPGTRQPGAASLHAASAAVPVRPRRGTAPAGKTADAVPAAAPEQAPRPAPQSRKPRNLEGDLDERRLLCHLQLAQDREAR
B2: in the assay with Thrombin, the “Thrombi Fold Change” value was determined as 10.98 fold.

B3: IL-1β: mouse IL-1β (SEQ ID NO:73); library peptides containing Caspase-1 cleavage sites D26 and D117 (protein, UniProt P10749 118-269, looked up)
Interleukin-1 beta: VPIRQLHYRLRDEQQKSLVLSDPYELKALHLNGQNINQQVIFSMSFVQGEPSNDKIPVALGLKGKNLYLSCVMKDGTPTLQLESVDPKQYPKKKMEKRFVFNKIEVKSKVEFESAEFPNWYISTSQAEHKPVFLGNNSGQDIIDFTMESVSS
For the molecule B3, the Fold enrichments with Caspase-1 [2] is 7.5 fold and 13 fold and 9 fold.
